The record followed here is publication PMC11997328, “Structural and functional characterization of the extended-diKH domain from the antiviral endoribonuclease KHNYN”.

The target in data set [1] is T1, KHNYN ex-diKH (human, UniProt O15037 8-200). Briefly: EMSA; 20 uM protein, 0.2 uM RNA; BLI: 20 mM Tris pH 8.0, 50 mM NaCl, 0.5 mM TCEP, 0.01% Tween 20, 8 U/ml RNasin Plus, 25 °C; EMSA: 20 mM Tris pH 8.0, 50 mM NaCl, 0.5 mM TCEP, 5% glycerol, room. As to conditions: protein: recombinant; tags: N-terminal StrepII tag removed by HRV 3C protease; label: 5'-FAM.
T1 sequence (O15037 8-200): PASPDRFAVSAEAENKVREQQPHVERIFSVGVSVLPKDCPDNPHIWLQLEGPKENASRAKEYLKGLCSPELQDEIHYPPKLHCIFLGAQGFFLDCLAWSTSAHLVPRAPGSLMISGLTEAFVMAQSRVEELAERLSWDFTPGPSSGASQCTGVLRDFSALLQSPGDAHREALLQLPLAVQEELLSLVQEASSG
Data set [2] has as its target T1, KHNYN ex-diKH. Description: BLI; up to 100 uM protein; BLI: 20 mM Tris pH 8.0, 50 mM NaCl, 0.5 mM TCEP, 0.01% Tween 20, 8 U/ml RNasin Plus, 25 °C; EMSA: 20 mM Tris pH 8.0, 50 mM NaCl, 0.5 mM TCEP, 5% glycerol, room. As to conditions: protein: recombinant; tags: N-terminal StrepII tag removed by HRV 3C protease; label: 5'-biotin.
Data set [3] deals with T2, ZAP RBD (human, UniProt Q7Z2W4 1-227). Briefly: BLI; BLI: 20 mM Tris pH 8.0, 50 mM NaCl, 0.5 mM TCEP, 0.01% Tween 20, 8 U/ml RNasin Plus, 25 °C; EMSA: 20 mM Tris pH 8.0, 50 mM NaCl, 0.5 mM TCEP, 5% glycerol, room. Particulars: protein: recombinant; tags: N-terminal StrepII tag removed by HRV 3C protease; label: 5'-biotin.
T2 sequence (Q7Z2W4 1-227): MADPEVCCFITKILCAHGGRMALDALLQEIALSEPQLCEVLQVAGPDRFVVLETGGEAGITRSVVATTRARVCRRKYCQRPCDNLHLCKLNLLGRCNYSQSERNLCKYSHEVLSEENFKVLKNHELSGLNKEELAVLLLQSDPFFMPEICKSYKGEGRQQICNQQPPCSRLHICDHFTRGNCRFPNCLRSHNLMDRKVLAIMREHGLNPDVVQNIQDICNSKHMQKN
The target in data set [4] is IMP1(KH1-KH2) (UniProt Q9NZI8 194-369). Description: BLI; low uM affinity; value not in material; BLI: 20 mM Tris pH 8.0, 50 mM NaCl, 0.5 mM TCEP, 0.01% Tween 20, 8 U/ml RNasin Plus, 25 °C; EMSA: 20 mM Tris pH 8.0, 50 mM NaCl, 0.5 mM TCEP, 5% glycerol, room. As to conditions: protein: recombinant; label: 5'-biotin.
Sequence of IMP1(KH1-KH2) (Q9NZI8 194-369): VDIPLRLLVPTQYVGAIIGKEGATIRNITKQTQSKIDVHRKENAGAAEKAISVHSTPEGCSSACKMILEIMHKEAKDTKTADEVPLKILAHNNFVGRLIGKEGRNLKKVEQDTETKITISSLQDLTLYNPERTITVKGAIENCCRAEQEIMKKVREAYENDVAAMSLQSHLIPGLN
The target in data set [5] is T2, ZAP RBD. Description: EMSA; 2 uM protein, 0.2 uM RNA; BLI: 20 mM Tris pH 8.0, 50 mM NaCl, 0.5 mM TCEP, 0.01% Tween 20, 8 U/ml RNasin Plus, 25 °C; EMSA: 20 mM Tris pH 8.0, 50 mM NaCl, 0.5 mM TCEP, 5% glycerol, room. Particulars: protein: recombinant; tags: N-terminal StrepII tag removed by HRV 3C protease; label: 5'-FAM.

B1: A-rich 33mer (ssRNA)
RNA: AUAACAAAUACACUAAAAUACAAAUCAGAAAAU
For the molecule B1, the binding result in data set [1] is given as “no binding”.

B2: AU-rich 33mer (ssRNA)
RNA: GUAACUAAUACUCUAUUUUGUUAAUCAGAUAAU
Consider B2, for which the binding result in data set [1] is “no binding”.

B3: CpG RNA (Bi-UAAUCGU) (ssRNA)
RNA: UAAUCGU
As for B3, the binding result in data set [2] is “no binding”. Besides, the Kd in data set [3] came out at 30 nM.

B4: CUG RNA (Bi-UUCUGUU) (ssRNA)
RNA: UUCUGUU
As to B4, the binding result in data set [2] was “no binding”; in data set [4], “binds”.

B5: CpG-depleted 33mer (ssRNA)
RNA: GCAACCACCACUCUAUUUUGUGCAUCAGAUGCU
Consider B5, for which the binding result in data set [1] is “no binding”.

B6: non-CpG RNA (Bi-UUCAGGU) (ssRNA)
RNA: UUCAGGU
Regarding B6, in data set [2], the binding result was “no binding”. Besides, the Kd in data set [3] came to 740 nM.

B7: U-rich 33mer (ssRNA)
RNA: GUUUCUUUUACUCUUUGUUACUUUUCAGUUAAU
For B7, the binding result in data set [1] is reported as “no binding”.

B8: CpG-rich 33mer (ssRNA)
RNA: GCAACGACGACGCUAUUUUGCGCAUCAGACGCG
As to B8, the values for the binding result in data set [5] and in data set [1] were “binds” and “no binding”, respectively.

B9: C-rich 33mer (ssRNA)
RNA: CUCCUCCCUACACUCCCCUCUCCCGCCGCCCCU
With B9, in data set [1], the binding result is on record as “no binding”.
